According to the DeepSol protein solubility set:

Assay: soluble on expression in E. coli; label from the status in PepcDB or PDB records

Row | Sequence | soluble on expression in E. coli
1 | MRYAEVLIPLALEGSFHYRLAEGLAEKAIVGMRCVVPFGAKRYYTGIIIGLSDKRPNLQISFKEVLFLPDDKPSVTASQLSLWQWLSAYYICTQGEVLRAALPAALLPESHTVIHYNTDFEADSRLSRDEEELLDILESAKGRTYTLDALQKAVGKRAIRAFTSLVERGAIRLEEEVKSRYKPKSEVFVRLAEPFRTEKTFASLLDSLHRAPKQSALLLHWAELITEHSLPYSSPMPQRLLAESDPHATVTLSALKKKGIFLSESVTHSVMYSAGGGEYRLWEQPQEEEKAIQSEESSTDSAVSASLPQKPLSLLYTHDFRRKEKQLLEWTEEVVRSGGQVLYLSPEANKRGGSDTLSTRMAERLGSCLLSYHAFESDAKRVEVWNRLATTEYPCVVLGVRSALFLPFRRLRLIIVDEEQEYLYKQQDPAPRFHTRQVAARLGRIHDCPVVLASATPSAEVLHQVRHKACELITWPDDRVRPRFDLEVIDMGKMRRQRQVGAGELLSFPLVSAIEETIRQKKMAVVLQNRRGFAPYIICSSCGEKLRCIHCDVSLTYHKHSCMLVCHYCGYSRPLPRICPSCKRASGVGEPSSLQPVGYGAERIEEELKRRFPTVSILRMDSDMAMSRTKMDEALARLEAKEVDILVGTQLIKGQVYNEHVGLVAVTQLDSILGFPDFRAYERAYQLLYQLMLRSGASRLYIQTNNPANSFPDLLREGDYKAFIGKQLEERQMLFFPPFSRLIRIEFRAGEESLVERIASDYAASLAAHLPEQSLSPVLVPPISRLRNAFIRELLLRLPLSSSVSATRNILDTIRTTLQTRTQEYKRVRILFDVDPL | not soluble
2 | MRYIRLCIISLLATLPLAVHASPQPLEQIKLSESQLSGRVGMIEMDLASGRTLTAWRADERFPMMSTFKVVLCGAVLARVDAGDEQLERKIHYRQQDLVDYSPVSEKHLADGMTVGELCAAAITMSDNSAANLLLATVGGPAGLTAFLRQIGDNVTRLDRWETELNEALPGDARDTTTPASMAATLRKLLTSQRLSARSQRQLLQWMVDDRVAGPLIRSVLPAGWFIADKTGAGERGARGIVALLGPNNKAERIVVIYLRDTPASMAERNQQIAGIGAALIEHWQR | soluble
3 | MRYPIMNNFFKIHDNLLRNLSPSLRRGLMDEIDWNDRLIGIKGARGMGKTTFLLDYARENFGIGNRKCLYINLNQLYFTTESLVNFAGEFVKQGGEVLLLDQVFKYPNWSIELRQCMELYPDLRIVFTGSTVMRLKEENPELNGLVTSYVLNGFSFREFLNLKTGLSLQPYSFDEIVSNHEQIAPRILEQVNPLDWFQDYLHHGYYPIFLEDKNYSESLLKTLNMTLEVDVLFIRQIEQRFLHKLRKLLYLLGQRAPGSLNISSIAKEVDTSRTTITNYLKYLSEARLIKELHREEETGAKKPAMIYLDNTNVGYVIQPEPLNYIDVLKTFFLNQVKSRNEVCLGSRSQIAFCVNRQYQFCIDEKMSRRYRPDRYYAIQNMRSGTRNMIPLWLFGFLY | not soluble
4 | MSAATATRSQLALQSYLDALLQEATFEDLEPLVETPPAPAPAPLKPVALAVAEVATPAPALETLPVDHGFDEFEAAVLEEQVRDARLVPPAPAALLDEPTTLRELPVEPRPHEVIELRVPSAPASVGEPPLLDLPLLDDGRPAWAAEPFECLLFD | soluble
5 | MSAEAADREAVSGSRPCTPPQTSWFEFLLNPSLLEQHLHSPHPDPSPVQLIFQFLEQASKPSVNEQNQVQPPVDNRRNRTLKLMALKVAAHLRWDLNMLEKGLTIPVLNMLLNELLCVSHVPPGVKHVDLDLSSLPPTTAMAVVFYNRWAIRTIVLSSFPEKQTKPGPHQLNMMNMLQQEKEHTENILSVLREQATDSIMVLEGALSIKKDFYIHL | not soluble
6 | MSAEMTVEGMISVFMKIRKVYADEFGRMLGNETYSPNEISILLFLANNPSIDTNSQLCTCLGVSKALVCRSVDALLGKEMIISVADDHDKRVQHLKLTEHALPVIEQLGGIKRKIDQEILEGIPEEDIANMANTMEKIFARFEERAKGKESSL | not soluble
7 | MSAEQDKEPIALKRVRGGDSGLDGLGGPNIQLGSPDKKKRKANTQGSSFPPLSEYAPPPNPNSDHLVAANPFDDSYNTISYKPLPSSNPYLGPGYPGFGGYSTFRMPPHVPPRMSSPYCGPYSLRNQPHPFPQNPLGMGFNRPHAFNFGPHDNSNFGNPPYNNVLTQDINMPGQHFRQGSAENFSQIPPQNVGQVSNPDLASNFAPGNNSNFTSPLETNHSFIPPPNAFGQAKAPLPKQDFTQGATKTPNQNSSTHPPHLNMEDPVNQSNVELKNVNRNNVVQENSRSGSAEATNNHANGTQNKPRQPRGAADLCTPDKSRKFSLLPSRHGHSSSDPVYPCGICTNEVNDDQDAILCEASCQKWFHRICTGMTETAYGLLTAEASAVWGCDTCMADKDVQLMRTREAFGPPAVGGDA | soluble
8 | MSAFASSDRAEKSGIALEAQQKIYEKYDKNLAGEILQWVQNVTGQSFDTQGDADNLVKVFQDGSLLCTLANSLKPGSVKKVNTSAMAFKKMENISFFLKFAEEYVQKSELFQTVDLYEGQDPNAVLICLASLARKSEKNFGRSGLGPKEAQGDRREWTDEQLKAGHNVIGLQMGSNKGATASGLNMGNTRHM | not soluble
9 | MSAFTPASEVLLRHSDDFEQSRILFAGDLQDDLPARLDTAASRAHTQQFQHWQVLSRQMGDNARFSLVATADDVADCDTLIYYWPKNKPEAQFQLMNLLSLLPVGTDIFVVGENRSGVRSAEQMLADYAPLNKVDSARRCGLYFGRLEKQPVFDADKFWGEYSVDGLTVKTLPGVFSRDGLDVGSQLLLSTLTPHTKGKVLDVGCGAGVLSVAFARHSPKIRLTLCDVSAPAVEASRATLAANGVEGEVFASNVFSEVKGRFDMIISNPPFHDGMQTSLDAAQTLIRGAVRHLNSGGELRIVANAFLPYPDVLDETFGFHEVIAQTGRFKVYRAIMTRQAKKG | not soluble
10 | MSAKMDEQALLALLRELAIDSQRVEHPAIASIEEYYAQGIELPDQGIKNLFLRNRKGTRHYLVLLDERKEADLPGIAEQIGESRLSFASVERLREYLGVELGCVTPFALVNDPQHRVEVLLDDAIRQDQLLGFHPLVNTATECIRYADLLAFLAHTGHEPRLIRA | not soluble
11 | MSALDPQASARVARTPDAEPEAVDASAAGESAGLIARLGRLFERDRLPPPADLAQLFEARLTDVRANKLAQAWRLAYEQADGKRRRAMLGGLAQVGAGMQGDGAQGTRLFKRFNALPDGLRFLVALRADMLRWRKQVAGLQALDKELEALLSAWFDVGLLELRPLTWDSPASLLEKLILYEAVHEIRSWDDLRHRVAGDRRCYAYFHPQMPDVPLIFVEVAFSAQMADNVQALLDTSAPPQDLDKARWAIFYSISNTQPGLRGISFGNFLLKRVIDRLLQELPKLKFFATLSPIPGFADWLSRLDAQEVEQAVRDKARTRSGAPDGARWVARLARAATGKPSEVVQRAGLRLAARYLQAMRAGQPLDPVARFHLGNGARIERLNWAADTSAKGLAQSCGMMVNYLYELGDLDGNLARLNEGKPQVSRGIARLGLEHHHHHH | not soluble
12 | MSALYRRFRPLTFQEVVGQEHVKEPLLKAIREGRLAQAYLFSGPRGVGKTTTARLLAMAVGCQGEDPPCGVCPHCQAVQRGAHPDVVEIDAASNNSVEDVRELRERIHLAPLSAPRKVFILDEAHMLSKSAFNALLKTLEEPPPHVLFVFATTEPERMPPTILSRTQHFRFRRLTEEEIAFKLRRILEAVGREAEEEALLLLARLADGALRDAESLLERFLLLEGPLTRKEVERALGLPPREALAEIAASLARGKTAEALGLARRLYGEGYAPRSLVSGLLEVFREGLYAAFGLAGTPLPAPPQALIAAMTALDEAMERLARRSDALSLEVALLEAGRALAAEALPQPTGAPSPEVGPKPESPPAPEPPRPEEAPDLRERWRAFLEALRPTLRAFVREARPEVREGQLCLAFPEDKAFHYRKASEQKARLLPLAQAHFGVEEVVLVLEGEKKSLSPRPRPAPPPEAPAPPGPPEEEVEAEEAAEEAPEEALRRVVRLLGGRVLWVRRPRTREAPEEEPLSQDEIGGTGI | soluble
13 | MSAQAAKVSKKELNSNHDGADETSEKEQQEAIEHIDEVQNEIDRLNEQASEEILKVEQKYNKLRQPFFQKRSELIAKIPNFWVTTFVNHPQVSALLGEEDEEAMHYLTRVEVTEFEDIKSGYRIDFYFDENPYFENKVLSKEFHMNESGDPSSKSTEIKWKSGKDMTKRSSQTQNKASRKRQHEEPESFFTWFTDHSDAGADELGEVIKDDIWPNPLQYYLVPDM | soluble
14 | MSATETITTNARVLGADPLVKDGFGEEDMLTLVLPYIKTAREGVLRLGELLETYGTYESNGIAFADTEEIWWLKTIGGHNWIARRVPDDAYVTNPNQLGIDHYEFENPDDYLASPDIRDFINKHHLDLTYSNEHFNPRYAFGSQRDKDHHYNTPRARAM | soluble
15 | MSAVSNGNPSIVSPRGEHKGTLIFLHGLGDQGHGWADAFKTEAKHDNIKFICPHSSERPVTLNMGMRMPAWFDLFGLDPNAQEDEQGINRATQYVHQLIDAEVAAGIPASRIAVGGFSMGGALAIYAGLTYPQKLGGIVGLSSFFLQRTKFPGSFTANNATPIFLGHGTDDFLVPLQFGQMSEQYIKKFNPKVELHTYRGMQHSSCGEEMRDVKTFLSAHIAH | not soluble
16 | MSCCFSKKLFGRRSKREDRYKVSEDAVPKPEEGGEPPKYSWDRREKVNAEDFTIANIHNTTLKKESKDGGPLQMENCTDSTILYLYQTSQVIIDDCRHCTIVLGPAAGSVFVRDCANCTIFTSCQQLRTRDCTSIRISILCPTEPIVENSSDIHFFHLAMRYPELKDQMHAVGLRPFTNRIASVHDFTPAGVNGKGNFRVTPEVVQISDGQEEILRAKGVILKPSPADFIPRFTDTTDPDPTFLYVLGKSEPVDELGDRAIELLHAIYKSGMQVMGTCDLETSTVDSKLVPFAGQAERMILFQLKGNLANLECDVEFDVMSENDLVPLRNLLIHLEGKKNG | not soluble
17 | MSCNSFFVFCANSKKEKKDKILEITPQGTTPLPCSRQSRMRDENGSTRTRGGSRGIKSSKEPDSTDDAFKEMAKRLAKKDKPEKTLDFI | soluble
